What all share (experiment): holdup assay
Holding throughout (design): key: below the threshold = too weak to quantify, mostly under pKd 3.1 to 4

In one test the target is Q13009. The settings on record: plain residues with an end cap or a label only (N-terminal biotin on a linker: ttds).
The target of another test is O00233. Conditions: plain residues with an end cap or a label only (N-terminal biotin on a linker: ttds).
The target of another test is Q9UMS6. The settings on record: plain residues with an end cap or a label only (N-terminal biotin on a linker: ttds).
A further test deals with Q9NPB6. Conditions: plain residues with an end cap or a label only (N-terminal biotin on a linker: ttds).
Another test deals with T1, CNKSR1, Q969H4.
T1 sequence (Q969H4 191-295, limits assumed, looked up): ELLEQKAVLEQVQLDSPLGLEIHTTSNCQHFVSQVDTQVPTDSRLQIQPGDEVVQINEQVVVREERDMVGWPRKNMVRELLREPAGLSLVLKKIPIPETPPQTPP

In another test the target is T2, RGS12, O14924.
T2 sequence (O14924 17-108, limits assumed, looked up): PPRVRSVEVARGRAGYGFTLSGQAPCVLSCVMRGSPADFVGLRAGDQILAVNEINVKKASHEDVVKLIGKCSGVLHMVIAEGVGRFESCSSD

The next test has as its target Q9ULJ8. The settings on record: plain residues with an end cap or a label only (N-terminal biotin on a linker: ttds).
The next test has as its target Q92614. The settings on record: plain residues with an end cap or a label only (N-terminal biotin on a linker: ttds).
The target in another test is Q96FS4. Conditions: plain residues with an end cap or a label only (N-terminal biotin on a linker: ttds).
A further test concerns the target Q70Z35. Conditions: plain residues with an end cap or a label only (N-terminal biotin on a linker: ttds).
Another test concerns the target Q8TEW0. The settings on record: plain residues with an end cap or a label only (N-terminal biotin on a linker: ttds).
Another test concerns the target GIPC3, Q8TF64.
A further test deals with O60759. Conditions: plain residues with an end cap or a label only (N-terminal biotin on a linker: ttds).
The next test deals with O00560. Conditions: plain residues with an end cap or a label only (N-terminal biotin on a linker: ttds).
The next test addresses O75970. Conditions: plain residues with an end cap or a label only (N-terminal biotin on a linker: ttds).
A further test addresses Q9Y3R0. Conditions: plain residues with an end cap or a label only (N-terminal biotin on a linker: ttds).
In the next test the target is Q12923. The settings on record: plain residues with an end cap or a label only (N-terminal biotin on a linker: ttds).
The target in another test is Q8IUC4. Conditions: plain residues with an end cap or a label only (N-terminal biotin on a linker: ttds).
Another test concerns the target LNX1_4, Q8TBB1.
Another test deals with T3, LNX2_1, Q8N448.
T3 sequence (Q8N448 228-328, limits assumed, looked up): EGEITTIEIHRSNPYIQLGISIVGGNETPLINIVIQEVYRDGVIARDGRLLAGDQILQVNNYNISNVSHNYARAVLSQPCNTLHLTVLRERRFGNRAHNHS

Another test deals with T4, INTU, Q9ULD6.
T4 sequence (Q9ULD6 180-273, limits assumed, looked up): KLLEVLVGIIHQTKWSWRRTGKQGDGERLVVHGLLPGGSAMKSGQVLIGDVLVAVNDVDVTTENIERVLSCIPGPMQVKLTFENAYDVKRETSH

The mark [1] stands for this setting: plain residues with an end cap or a label only (N-terminal biotin on a linker: ttds).
Setting [2] is: plain residues with an end cap or a label only (N-terminal biotin on a linker: none).

Sequence of LNX1_4, Q8TBB1 (Q8TBB1 631-726): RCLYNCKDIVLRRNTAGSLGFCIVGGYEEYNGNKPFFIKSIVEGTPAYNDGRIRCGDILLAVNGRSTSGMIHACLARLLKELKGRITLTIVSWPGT
Sequence of GIPC3, Q8TF64 (Q8TF64 107-202): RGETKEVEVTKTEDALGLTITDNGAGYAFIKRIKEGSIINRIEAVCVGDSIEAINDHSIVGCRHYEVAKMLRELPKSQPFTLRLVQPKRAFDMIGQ

What is called pKd is the negative decadic logarithm of the Kd, by convention in mol/L. As for HRTCYLVTQL [ASIC3, Q9UHC3], the pKd entry with Q13009 is “below the threshold”; with O00233, “below the threshold”; in the test with Q9UMS6, “below the threshold”; with Q9NPB6, “below the threshold”; in the test with CNKSR1, Q969H4 (setting [1]), “below the threshold”; in the test with RGS12, O14924 (setting [1]), 4.28. In addition, the pKd result in the test with Q9ULJ8 is reported as “below the threshold”; with Q92614, “below the threshold”; in the test with Q96FS4, “below the threshold”; with Q70Z35, “below the threshold”; with Q8TEW0, “below the threshold”; with GIPC3, Q8TF64 (setting [1]) it was “below the threshold”. Also, the pKd result with O60759, in the test with O00560, with O75970, in the test with Q9Y3R0, in the test with Q12923 and with Q8IUC4 was “below the threshold” each time.

With SEKHFRETEV [HTLV1-TAX1, P03409], the pKd result with LNX1_4, Q8TBB1 (setting [1]) is “below the threshold”; with LNX2_1, Q8N448 (setting [1]) it was “below the threshold”; with INTU, Q9ULD6 (setting [1]), 3.8.

Turning to QPGTPTRTAV [MAP2K2, P36507], the pKd result was “below the threshold” with Q13009; “below the threshold” with O00233; “below the threshold” with Q9UMS6; “below the threshold” in the test with Q9NPB6; 4.07 with CNKSR1, Q969H4 (setting [1]); “below the threshold” with RGS12, O14924 (setting [1]). For the same molecule, the pKd entry with Q9ULJ8 is on record as “below the threshold”; with Q92614 it was “below the threshold”; with Q96FS4 it was “below the threshold”; with Q70Z35, “below the threshold”; in the test with Q8TEW0, “below the threshold”; with GIPC3, Q8TF64 (setting [1]), “below the threshold”. Besides, the pKd result with O60759, with O00560, with O75970, in the test with Q9Y3R0, in the test with Q12923 and with Q8IUC4 was “below the threshold” throughout. The pKd entry with INTU, Q9ULD6 (setting [1]) was “below the threshold”.

As for RRVRKLPSTTL [RPS6KA1, Q15418], the pKd result in the test with CNKSR1, Q969H4 (setting [1]) is “below the threshold”; with RGS12, O14924 (setting [1]), 3.56; with LNX1_4, Q8TBB1 (setting [1]), “below the threshold”; in the test with LNX2_1, Q8N448 (setting [1]), “below the threshold”; with GIPC3, Q8TF64 (setting [1]), “below the threshold”; with INTU, Q9ULD6 (setting [1]) it was “below the threshold”.

For the molecule MERLRVETDV [ARHGEF16, Q5VV41], the pKd result with Q13009 was “below the threshold”; in the test with O00233 it was “below the threshold”; in the test with Q9UMS6, “below the threshold”; with Q9NPB6 it was “below the threshold”; in the test with CNKSR1, Q969H4 (setting [1]), 4.16; with RGS12, O14924 (setting [1]) it was “below the threshold”. For the same molecule, the pKd entry was “below the threshold” with Q9ULJ8; “below the threshold” with Q92614; “below the threshold” in the test with Q96FS4; “below the threshold” in the test with Q70Z35; “below the threshold” with Q8TEW0; “below the threshold” with GIPC3, Q8TF64 (setting [1]). Also, the pKd result with O60759, in the test with O00560, in the test with O75970, with Q9Y3R0, with Q12923 and with Q8IUC4 was “below the threshold” each time. The same molecule registered a pKd in the test with INTU, Q9ULD6 (setting [1]) of 4.32.

On to DSKPPLPPDEWV [MERS-E, K9N5R3], for which the pKd entry is “below the threshold” with CNKSR1, Q969H4 (setting [2]); “below the threshold” with RGS12, O14924 (setting [2]); “below the threshold” with LNX1_4, Q8TBB1 (setting [2]); 4.21 with LNX2_1, Q8N448 (setting [2]); “below the threshold” with GIPC3, Q8TF64 (setting [2]); “below the threshold” in the test with INTU, Q9ULD6 (setting [2]).

Turning to HIVEALETDV [PBK, Q96KB5], the pKd entry is on record as “below the threshold” in the test with Q13009; “below the threshold” with O00233; “below the threshold” in the test with Q9UMS6; “below the threshold” in the test with Q9NPB6; “below the threshold” with CNKSR1, Q969H4 (setting [1]); “below the threshold” with RGS12, O14924 (setting [1]). Besides, the pKd entry with Q9ULJ8 is reported as “below the threshold”; in the test with Q96FS4 it was “below the threshold”; with Q70Z35, “below the threshold”; with Q8TEW0 it was “below the threshold”; with GIPC3, Q8TF64 (setting [1]), “below the threshold”; with O60759, “below the threshold”. Further, the pKd result with O00560 was “below the threshold”; with O75970 it was “below the threshold”; with Q9Y3R0 it was “below the threshold”; in the test with Q12923, “below the threshold”; with Q8IUC4, “below the threshold”; with INTU, Q9ULD6 (setting [1]), 4.9.

Consider DEDQHTQITKV [PTEN, P60484], for which the pKd entry is “below the threshold” with LNX2_1, Q8N448 (setting [1]) and “below the threshold” with INTU, Q9ULD6 (setting [1]).

TGDTLEKFVEGL [CBP, Q92793]: the pKd result in the test with Q92614 is “below the threshold”; with LNX1_4, Q8TBB1 (setting [1]), 4.65; with LNX2_1, Q8N448 (setting [1]), “below the threshold”; with INTU, Q9ULD6 (setting [1]) it was “below the threshold”.

Consider CLDTSRETDL [KCNA5, P22460], for which the pKd result with Q13009 is on record as “below the threshold”; in the test with O00233, “below the threshold”; in the test with Q9UMS6, “below the threshold”; with Q9NPB6, “below the threshold”; with CNKSR1, Q969H4 (setting [1]), “below the threshold”; in the test with RGS12, O14924 (setting [1]), “below the threshold”. For the same molecule, the pKd result with Q9ULJ8 was “below the threshold”; in the test with Q92614, “below the threshold”; in the test with Q96FS4, “below the threshold”; with Q70Z35, “below the threshold”; with Q8TEW0, “below the threshold”; with GIPC3, Q8TF64 (setting [1]), “below the threshold”. For the same molecule, the pKd entry with O60759, in the test with O00560, with O75970, with Q9Y3R0, with Q12923 and in the test with Q8IUC4 was “below the threshold” throughout.

Values taken from PMC9482650, “Quantitative fragmentomics allow affinity mapping of interactomes” (Nature Communications, 2022).
